According to patent publication EP0975354B1:

Assays:
[1] = target: GnRH receptor of rat pituitary membranes (rat) (UniProt P30969); assay: radioligand displacement on rat pituitary membranes, equimolar concentrations; reference native GnRH
[2] = target: LH receptor on bovine granulosa cells and small luteal cells (bovine) (UniProt Q28005); assay: cell-based or functional assay
UniProt Q28005, sequence (Q28005 27-701): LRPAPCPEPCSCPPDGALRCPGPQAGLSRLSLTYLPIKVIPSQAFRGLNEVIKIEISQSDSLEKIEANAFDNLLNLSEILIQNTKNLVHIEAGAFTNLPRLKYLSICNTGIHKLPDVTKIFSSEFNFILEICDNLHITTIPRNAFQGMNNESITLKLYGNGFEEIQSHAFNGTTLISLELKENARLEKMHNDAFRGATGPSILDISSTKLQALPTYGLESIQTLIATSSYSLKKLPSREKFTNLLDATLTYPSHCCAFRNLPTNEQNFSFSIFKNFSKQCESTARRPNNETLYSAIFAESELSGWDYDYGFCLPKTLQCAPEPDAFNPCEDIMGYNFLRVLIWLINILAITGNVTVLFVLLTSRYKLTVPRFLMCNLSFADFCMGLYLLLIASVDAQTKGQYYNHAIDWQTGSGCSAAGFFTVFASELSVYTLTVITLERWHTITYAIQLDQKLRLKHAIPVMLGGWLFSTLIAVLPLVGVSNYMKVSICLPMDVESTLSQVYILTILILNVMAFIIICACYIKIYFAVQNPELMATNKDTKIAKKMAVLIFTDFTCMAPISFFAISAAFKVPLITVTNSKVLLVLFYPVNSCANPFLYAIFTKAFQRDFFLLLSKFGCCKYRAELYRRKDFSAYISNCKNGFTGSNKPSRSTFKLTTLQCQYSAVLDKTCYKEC

UniProt P30969, sequence (P30969 whole entry): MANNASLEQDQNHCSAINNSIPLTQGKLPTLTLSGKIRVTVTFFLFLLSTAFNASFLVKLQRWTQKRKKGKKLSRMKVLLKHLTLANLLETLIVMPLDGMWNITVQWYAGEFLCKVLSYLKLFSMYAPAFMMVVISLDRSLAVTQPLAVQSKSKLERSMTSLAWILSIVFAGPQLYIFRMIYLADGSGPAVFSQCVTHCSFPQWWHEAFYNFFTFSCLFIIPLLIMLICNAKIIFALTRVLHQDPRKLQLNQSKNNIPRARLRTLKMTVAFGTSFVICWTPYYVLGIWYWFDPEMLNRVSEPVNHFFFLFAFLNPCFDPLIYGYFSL

## D-Lys6GnRH (peptide)
[1]
  displacement of radiolabelled GnRH as percent of the cpm displaced by native GnRH: 187%

## hecate-bLH conjugate (peptide)
[2]
  killing of bovine granulosa cells (Trypan Blue exclusion) (fold of the cells killed by hecate alone): 2
  killing of bovine small luteal cells (Trypan Blue exclusion) (fold of the cells killed by hecate alone): 2
